This note sets out measurements from patent publication US20170157251A1 (MacroGenics, published 2017).

For assay [1], the target named is T1, human CD3 on T cells (human, UniProt P07766 23-207; P04234 22-171).
T1 construct: also called CD3 on human CD4+ and CD8+ T cells; copies: 1 + 1
The assay can be described thus: flow cytometry on human blood leukocytes, CD4+ and CD8+ gate (T cells); detection with biotinylated anti-E-coil/K-coil mAb and streptavidin-PE.

Assay [2] deals with T2, human CD19 on cells (human, UniProt P15391 20-556).
T2 construct: whole, on cells; also called CD19 on human CD20+ B cells; CD19 on Raji/GF, HBL-2, Jeko-1 cells
T2 sequence (looked up): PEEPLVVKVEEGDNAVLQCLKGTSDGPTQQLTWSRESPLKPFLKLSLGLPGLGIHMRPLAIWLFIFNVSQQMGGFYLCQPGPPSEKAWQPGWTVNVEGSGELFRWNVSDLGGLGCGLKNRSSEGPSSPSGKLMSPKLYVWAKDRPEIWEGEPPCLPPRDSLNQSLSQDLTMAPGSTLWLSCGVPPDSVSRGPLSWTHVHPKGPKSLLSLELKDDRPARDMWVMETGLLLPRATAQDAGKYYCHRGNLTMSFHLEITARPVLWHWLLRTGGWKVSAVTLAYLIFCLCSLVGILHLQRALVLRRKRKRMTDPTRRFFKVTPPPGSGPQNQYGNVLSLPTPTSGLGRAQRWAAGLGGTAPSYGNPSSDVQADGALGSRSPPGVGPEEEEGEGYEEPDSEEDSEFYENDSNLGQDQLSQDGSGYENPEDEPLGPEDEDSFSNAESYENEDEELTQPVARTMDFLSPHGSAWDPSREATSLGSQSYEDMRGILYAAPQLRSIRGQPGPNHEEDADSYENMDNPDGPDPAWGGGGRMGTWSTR
The assay can be described thus: flow cytometry on human blood leukocytes, CD20+ gate (B cells); detection with biotinylated anti-E-coil/K-coil mAb and streptavidin-PE.

Assay [3] concerns the target T3, soluble human CD19-biotin (human, UniProt P15391 20-291, limits assumed, biotin (site not stated)).
T3 construct: Detection antigen of the bifunctional ELISA
T3 sequence (looked up): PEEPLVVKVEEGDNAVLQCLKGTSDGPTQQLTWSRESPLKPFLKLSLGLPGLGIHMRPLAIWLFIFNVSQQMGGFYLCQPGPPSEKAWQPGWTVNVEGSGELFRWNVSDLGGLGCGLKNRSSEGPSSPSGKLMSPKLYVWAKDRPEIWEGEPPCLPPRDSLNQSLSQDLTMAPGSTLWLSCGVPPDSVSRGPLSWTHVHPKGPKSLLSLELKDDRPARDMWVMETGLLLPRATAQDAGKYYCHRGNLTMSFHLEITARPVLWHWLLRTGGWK
In words: bifunctional (bispecific) ELISA: plate coated with soluble human CD3ε/δ, DART titrated, detected with soluble human CD19-biotin. (ELISA stands for enzyme-linked immunosorbent assay.)

For assay [4], the target named is T4, cynomolgus monkey CD3 on T cells (cynomolgus monkey, UniProt Q95LI5 22-198; Q95LI8 22-171).
T4 construct: T cells were gated as CD4+ and CD8+; also called CD3 on cynomolgus monkey CD4+ and CD8+ T cells
In words: flow cytometry on cynomolgus monkey blood leukocytes, CD4+ and CD8+ gate (T cells); detection with biotinylated anti-E-coil/K-coil mAb and streptavidin-PE.

T1 sequence (P07766 23-207 limits assumed, chain 1 of 2): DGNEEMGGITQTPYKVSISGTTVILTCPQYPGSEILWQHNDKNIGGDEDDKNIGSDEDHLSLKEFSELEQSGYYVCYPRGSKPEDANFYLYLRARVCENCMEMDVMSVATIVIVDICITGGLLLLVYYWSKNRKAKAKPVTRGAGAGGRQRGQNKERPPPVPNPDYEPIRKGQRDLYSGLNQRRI
T1 sequence (P04234 22-171 limits assumed, chain 2 of 2): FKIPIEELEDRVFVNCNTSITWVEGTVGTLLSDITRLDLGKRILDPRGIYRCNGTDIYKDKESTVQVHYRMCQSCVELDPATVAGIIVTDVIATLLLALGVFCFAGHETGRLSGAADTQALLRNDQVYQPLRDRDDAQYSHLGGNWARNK
T4 sequence (Q95LI5 22-198 limits assumed, chain 1 of 2): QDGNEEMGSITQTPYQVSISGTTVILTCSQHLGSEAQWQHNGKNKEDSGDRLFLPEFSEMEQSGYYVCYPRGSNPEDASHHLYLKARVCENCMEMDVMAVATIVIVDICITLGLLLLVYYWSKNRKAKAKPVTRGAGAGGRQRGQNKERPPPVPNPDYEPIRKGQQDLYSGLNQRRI
T4 sequence (Q95LI8 22-171 limits assumed, chain 2 of 2): as the sequence (P04234 22-171 limits assumed, chain 2 of 2) above, with I5V, N15K, I20V, S32T, D33N, I34N, T64A, S74N, V83L, H141R counted along it

B1: Control DART 1 (Fluorescein×CD3) (bispecific antibody)
chain 1: DVVMTQTPFSLPVSLGDQASISCRSSQSLVHSNGNTYLRWYLQKPGQSPKVLIYKVSNRFSGVPDRFSGSGSGTDFTLKISRVEAEDLGVYFCSQSTHVPWTFGGGTKLEIKGGGSGGGGEVQLVESGGGLVQPGGSLRLSCAASGFTFSTYAMNWVRQAPGKGLEWVGRIRSKYNNYATYYADSVKGRFTISRDDSKNSLYLQMNSLKTEDTAVYYCVRHGNFGNSYVSWFAYWGQGTLVTVSSASTKGEVAACEKEVAALEKEVAALEKEVAALEKGGGDKTHTCPPCPAPEAAGGPSVFLFPPKPKDTLMISRTPEVTCVVVDVSHEDPEVKFNWYVDGVEVHNAKTKPREEQYNSTYRVVSVLTVLHQDWLNGKEYKCKVSNKALPAPIEKTISKAKGQPREPQVYTLPPSREEMTKNQVSLWCLVKGFYPSDIAVEWESNGQPENNYKTTPPVLDSDGSFFLYSKLTVDKSRWQQGNVFSCSVMHEALHNHYTQKSLSLSPGK
chain 2: QAVVTQEPSLTVSPGGTVTLTCRSSTGAVTTSNYANWVQQKPGQAPRGLIGGTNKRAPWTPARFSGSLLGGKAALTITGAQAEDEADYYCALWYSNLWVFGGGTKLTVLGGGGSGGGGEVKLDETGGGLVQPGRPMKLSCVASGFTFSDYWMNWVRQSPEKGLEWVAQIRNKPYNYETYYSDSVKGRFTISRDDSKSSVYLQMNNLRVEDMGIYYCTGSYYGMDYWGQGTSVTVSSASTKGKVAACKEKVAALKEKVAALKEKVAALKE
chain 3: not shown
notes: other arm is anti-fluorescein 4-4-20
B1: the binding result was “binds” in assay [1], “no binding (tested: about 80 nM)” in assay [2], “no binding (tested: about 5 µg/ml)” in assay [3] and “binds” in assay [4].
